Data on 1 substance can be found in article PMC7183857.

Read-outs that look alike come from different tables or passages of the source. Where only a bound is given, the exact number is not on record here.

Assay in all cases: co-sedimentation
The target of experiment [1] is CA_(14C/45C/E71A) tubes (HIV-1).
The target in experiment [2] is CA_(14C/45C/E75A) tubes (HIV-1).
The target in experiment [3] is A14C/E45C disulfide-crosslinked CA tubes (HIV-1).
Experiment [4] has as its target CA_(14C/45C/E213A) tubes (HIV-1).
Experiment [5] addresses A14C/E45C disulfide-crosslinked CA tubes (HIV-1). The source holds these as a separate data set.

In the case of “MxB_(1–35)-MBPdi (from UniProt P20592 1-35)”, the binding as percent of WT CA tubes in experiment [1] was 60 % of WT; in experiment [2], 60 % of WT; in experiment [4] it was 40 % of WT. For the same substance, the percent binding in experiment [3] amounted to 80%; in experiment [5], 20%. The substance also had a percent bound in experiment [3] above 90%. Besides, in experiment [3], the percent co-pelleted was above 90%.
